Measurements as given in paper PMC11338459, “Cryo-EM structures of the human band 3 transporter indicate a transport mechanism involving the coupled movement of chloride and bicarbonate ions” (PLOS Biology, 2024).

Target: the molecule itself
Assay: cryo-EM structure; detergent-solubilized raw ghost membrane of human RBC reconstituted into MSP1E3D1 nanodiscs (POPC:POPE:POPG), enriched on Superose 6 in 20 mM Tris-HCl pH 7.5, 100 mM NaCl; Build and Retrieve processing; OF-IF and IF-IF dimers

B1: human band 3 anion transporter (natural protein, UniProt P02730 1-911, looked up)
chain: MEELQDDYEDMMEENLEQEEYEDPDIPESQMEEPAAHDTEATATDYHTTSHPGTHKVYVELQELVMDEKNQELRWMEAARWVQLEENLGENGAWGRPHLSHLTFWSLLELRRVFTKGTVLLDLQETSLAGVANQLLDRFIFEDQIRPQDREELLRALLLKHSHAGELEALGGVKPAVLTRSGDPSQPLLPQHSSLETQLFCEQGDGGTEGHSPSGILEKIPPDSEATLVLVGRADFLEQPVLGFVRLQEAAELEAVELPVPIRFLFVLLGPEAPHIDYTQLGRAAATLMSERVFRIDAYMAQSRGELLHSLEGFLDCSLVLPPTDAPSEQALLSLVPVQRELLRRRYQSSPAKPDSSFYKGLDLNGGPDDPLQQTGQLFGGLVRDIRRRYPYYLSDITDAFSPQVLAAVIFIYFAALSPAITFGGLLGEKTRNQMGVSELLISTAVQGILFALLGAQPLLVVGFSGPLLVFEEAFFSFCETNGLEYIVGRVWIGFWLILLVVLVVAFEGSFLVRFISRYTQEIFSFLISLIFIYETFSKLIKIFQDHPLQKTYNYNVLMVPKPQGPLPNTALLSLVLMAGTFFFAMMLRKFKNSSYFPGKLRRVIGDFGVPISILIMVLVDFFIQDTYTQKLSVPDGFKVSNSSARGWVIHPLGLRSEFPIWMMFASALPALLVFILIFLESQITTLIVSKPERKMVKGSGFHLDLLLVVGMGGVAALFGMPWLSATTVRSVTHANALTVMGKASTPGAAAQIQEVKEQRISGLLVAVLVGLSILMEPILSRIPLAVLFGIFLYMGVTSLSGIQLFDRILLLFKPPKYHPDVPYVKRVKTWRMHLFTGIQIICLAVLWVVKSTPASLALPFVLILTVPLRRVLLPLIFRNVELQCLDADDAKATFDEEEGRDEYDEVAMPV
modifications: N-linked N-acetylglucosamine (NAG) at N642
notes: band 3 anion transporter (AE1), human erythrocyte form of 911 amino acids, encoded by SLC4A1; endogenous protein from ghost membranes; the model of each subunit holds residues 372-888 except 743-751; Native protein from a crude membrane extract, identified from the cryo-EM maps (Build and Retrieve, Model Angelo); PC and PIP2 lipids lie at the subunit interface; also called band 3 transporter; …
With B1 as the protein, how does the “stoichiometry N” value read?
The value was 2.
